US20220298218A1 (ANTAG THERAPEUTICS, published 2022)
*1 amine or outer side, *2 acyl side, *3 side chain or, on linkers, in order; H or OH if unused. Where no end group is shown, it is not given here. Side-chain parts run from the residue outwards. [ ]: non-standard residue; d: D form. The star is where a group is joined. C18 diacid = O=C(O)CCCCCCCCCCCCCCCCC(=O)*; γGlu = O=C(O)[C@H](CCC(=O)[*:2])N[*:1]; Nle = CCCC[C@H](N)C(=O)O; AEEA = NCCOCCOCC(=O)O

Biological target: T1, human GIP receptor (human, UniProt P48546 22-466)
T1 sequence (looked up): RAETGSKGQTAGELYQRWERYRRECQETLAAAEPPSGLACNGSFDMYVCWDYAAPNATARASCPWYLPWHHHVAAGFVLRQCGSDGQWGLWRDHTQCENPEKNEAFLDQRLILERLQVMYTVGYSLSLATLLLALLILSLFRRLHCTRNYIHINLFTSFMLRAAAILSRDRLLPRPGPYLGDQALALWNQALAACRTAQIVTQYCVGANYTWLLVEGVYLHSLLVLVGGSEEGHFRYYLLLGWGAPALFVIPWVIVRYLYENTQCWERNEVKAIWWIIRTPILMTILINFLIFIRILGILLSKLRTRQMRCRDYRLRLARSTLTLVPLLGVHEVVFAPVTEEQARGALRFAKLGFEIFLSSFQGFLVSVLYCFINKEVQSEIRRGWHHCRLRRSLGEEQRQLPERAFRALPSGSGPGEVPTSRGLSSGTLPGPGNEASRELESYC
Test: cell-based or functional assay

B1: AT691 (peptide)
peptide: EGTFISDYSIALDKIK([AEEA-AEEA-γGlu-C18 diacid])QQDFVNWLLEGGPSSGAPPPS-OH
modifications: N-terminus assumed
SMILES: CC[C@H](C)[C@H](NC(=O)[C@H](CO)NC(=O)[C@H](Cc1ccc(O)cc1)NC(=O)[C@H](CC(=O)O)NC(=O)[C@H](CO)NC(=O)[C@@H](NC(=O)[C@H](Cc1ccccc1)NC(=O)[C@@H](NC(=O)CNC(=O)[C@@H](N)CCC(=O)O)[C@@H](C)O)[C@@H](C)CC)C(=O)N[C@@H](C)C(=O)N[C@@H](CC(C)C)C(=O)N[C@@H](CC(=O)O)C(=O)N[C@@H](CCCCN)C(=O)N[C@H](C(=O)N[C@@H](CCCCNC(=O)COCCOCCNC(=O)COCCOCCNC(=O)CC[C@H](NC(=O)CCCCCCCCCCCCCCCCC(=O)O)C(=O)O)C(=O)N[C@@H](CCC(N)=O)C(=O)N[C@@H](CCC(N)=O)C(=O)N[C@@H](CC(=O)O)C(=O)N[C@@H](Cc1ccccc1)C(=O)N[C@H](C(=O)N[C@@H](CC(N)=O)C(=O)N[C@@H](Cc1c[nH]c2ccccc12)C(=O)N[C@@H](CC(C)C)C(=O)N[C@@H](CC(C)C)C(=O)N[C@@H](CCC(=O)O)C(=O)NCC(=O)NCC(=O)N1CCC[C@H]1C(=O)N[C@@H](CO)C(=O)N[C@@H](CO)C(=O)NCC(=O)N[C@@H](C)C(=O)N1CCC[C@H]1C(=O)N1CCC[C@H]1C(=O)N1CCC[C@H]1C(=O)N[C@@H](CO)C(=O)O)C(C)C)[C@@H](C)CC
cAMP agonism % Emax: 7% | cAMP antagonism: 20 nM | cAMP antagonism % inhib: 75% | cAMP antagonism pIC50: 7.8

B2: AT682 (peptide)
peptide: EGTFISDYSIALDKIK([AEEA-AEEA-γGlu-C18 diacid])QQDFVEWLLAQKPSSGAPPPS-OH
modifications: N-terminus assumed
SMILES: CC[C@H](C)[C@H](NC(=O)[C@H](CO)NC(=O)[C@H](Cc1ccc(O)cc1)NC(=O)[C@H](CC(=O)O)NC(=O)[C@H](CO)NC(=O)[C@@H](NC(=O)[C@H](Cc1ccccc1)NC(=O)[C@@H](NC(=O)CNC(=O)[C@@H](N)CCC(=O)O)[C@@H](C)O)[C@@H](C)CC)C(=O)N[C@@H](C)C(=O)N[C@@H](CC(C)C)C(=O)N[C@@H](CC(=O)O)C(=O)N[C@@H](CCCCN)C(=O)N[C@H](C(=O)N[C@@H](CCCCNC(=O)COCCOCCNC(=O)COCCOCCNC(=O)CC[C@H](NC(=O)CCCCCCCCCCCCCCCCC(=O)O)C(=O)O)C(=O)N[C@@H](CCC(N)=O)C(=O)N[C@@H](CCC(N)=O)C(=O)N[C@@H](CC(=O)O)C(=O)N[C@@H](Cc1ccccc1)C(=O)N[C@H](C(=O)N[C@@H](CCC(=O)O)C(=O)N[C@@H](Cc1c[nH]c2ccccc12)C(=O)N[C@@H](CC(C)C)C(=O)N[C@@H](CC(C)C)C(=O)N[C@@H](C)C(=O)N[C@@H](CCC(N)=O)C(=O)N[C@@H](CCCCN)C(=O)N1CCC[C@H]1C(=O)N[C@@H](CO)C(=O)N[C@@H](CO)C(=O)NCC(=O)N[C@@H](C)C(=O)N1CCC[C@H]1C(=O)N1CCC[C@H]1C(=O)N1CCC[C@H]1C(=O)N[C@@H](CO)C(=O)O)C(C)C)[C@@H](C)CC
cAMP agonism % Emax: 0% | cAMP antagonism: 13.6 nM | cAMP antagonism % inhib: 89% | cAMP antagonism pIC50: 7.9

B3: AT689 (peptide)
peptide: EGTFISDYSIALDKIK([AEEA-AEEA-γGlu-C18 diacid])QQDFVNWLLEQKPSSGAPPPS-OH
modifications: N-terminus assumed
SMILES: CC[C@H](C)[C@H](NC(=O)[C@H](CO)NC(=O)[C@H](Cc1ccc(O)cc1)NC(=O)[C@H](CC(=O)O)NC(=O)[C@H](CO)NC(=O)[C@@H](NC(=O)[C@H](Cc1ccccc1)NC(=O)[C@@H](NC(=O)CNC(=O)[C@@H](N)CCC(=O)O)[C@@H](C)O)[C@@H](C)CC)C(=O)N[C@@H](C)C(=O)N[C@@H](CC(C)C)C(=O)N[C@@H](CC(=O)O)C(=O)N[C@@H](CCCCN)C(=O)N[C@H](C(=O)N[C@@H](CCCCNC(=O)COCCOCCNC(=O)COCCOCCNC(=O)CC[C@H](NC(=O)CCCCCCCCCCCCCCCCC(=O)O)C(=O)O)C(=O)N[C@@H](CCC(N)=O)C(=O)N[C@@H](CCC(N)=O)C(=O)N[C@@H](CC(=O)O)C(=O)N[C@@H](Cc1ccccc1)C(=O)N[C@H](C(=O)N[C@@H](CC(N)=O)C(=O)N[C@@H](Cc1c[nH]c2ccccc12)C(=O)N[C@@H](CC(C)C)C(=O)N[C@@H](CC(C)C)C(=O)N[C@@H](CCC(=O)O)C(=O)N[C@@H](CCC(N)=O)C(=O)N[C@@H](CCCCN)C(=O)N1CCC[C@H]1C(=O)N[C@@H](CO)C(=O)N[C@@H](CO)C(=O)NCC(=O)N[C@@H](C)C(=O)N1CCC[C@H]1C(=O)N1CCC[C@H]1C(=O)N1CCC[C@H]1C(=O)N[C@@H](CO)C(=O)O)C(C)C)[C@@H](C)CC
cAMP agonism % Emax: 3% | cAMP antagonism: 10 nM | cAMP antagonism % inhib: 82% | cAMP antagonism pIC50: 8

EGTFISDYSIA[Nle]DKIK([AEEA-AEEA-γGlu-C18 diacid])QQDFVEWLLAQKPSSGAPPPS-OH [AT683]
cAMP agonism % Emax: 0% | cAMP antagonism: 15.9 nM | cAMP antagonism % inhib: 93% | cAMP antagonism pIC50: 7.8

B4: AT693 (peptide)
peptide: EGTFISEYSIALEKIK([AEEA-AEEA-γGlu-C18 diacid])QQEFVEWLLAQKPSSGAPPPS-OH
modifications: N-terminus assumed
SMILES: CC[C@H](C)[C@H](NC(=O)[C@H](CO)NC(=O)[C@H](Cc1ccc(O)cc1)NC(=O)[C@H](CCC(=O)O)NC(=O)[C@H](CO)NC(=O)[C@@H](NC(=O)[C@H](Cc1ccccc1)NC(=O)[C@@H](NC(=O)CNC(=O)[C@@H](N)CCC(=O)O)[C@@H](C)O)[C@@H](C)CC)C(=O)N[C@@H](C)C(=O)N[C@@H](CC(C)C)C(=O)N[C@@H](CCC(=O)O)C(=O)N[C@@H](CCCCN)C(=O)N[C@H](C(=O)N[C@@H](CCCCNC(=O)COCCOCCNC(=O)COCCOCCNC(=O)CC[C@H](NC(=O)CCCCCCCCCCCCCCCCC(=O)O)C(=O)O)C(=O)N[C@@H](CCC(N)=O)C(=O)N[C@@H](CCC(N)=O)C(=O)N[C@@H](CCC(=O)O)C(=O)N[C@@H](Cc1ccccc1)C(=O)N[C@H](C(=O)N[C@@H](CCC(=O)O)C(=O)N[C@@H](Cc1c[nH]c2ccccc12)C(=O)N[C@@H](CC(C)C)C(=O)N[C@@H](CC(C)C)C(=O)N[C@@H](C)C(=O)N[C@@H](CCC(N)=O)C(=O)N[C@@H](CCCCN)C(=O)N1CCC[C@H]1C(=O)N[C@@H](CO)C(=O)N[C@@H](CO)C(=O)NCC(=O)N[C@@H](C)C(=O)N1CCC[C@H]1C(=O)N1CCC[C@H]1C(=O)N1CCC[C@H]1C(=O)N[C@@H](CO)C(=O)O)C(C)C)[C@@H](C)CC
cAMP agonism % Emax: 0% | cAMP antagonism: 1.26 nM | cAMP antagonism % inhib: 96% | cAMP antagonism pIC50: 8.9

B5: AT690 (peptide)
peptide: EGTFISDYSIA[Nle]DKIK([AEEA-AEEA-γGlu-C18 diacid])QQDFVNWLLEQKPSSGAPPPS-OH
modifications: N-terminus assumed
SMILES: CCCC[C@H](NC(=O)[C@H](C)NC(=O)[C@@H](NC(=O)[C@H](CO)NC(=O)[C@H](Cc1ccc(O)cc1)NC(=O)[C@H](CC(=O)O)NC(=O)[C@H](CO)NC(=O)[C@@H](NC(=O)[C@H](Cc1ccccc1)NC(=O)[C@@H](NC(=O)CNC(=O)[C@@H](N)CCC(=O)O)[C@@H](C)O)[C@@H](C)CC)[C@@H](C)CC)C(=O)N[C@@H](CC(=O)O)C(=O)N[C@@H](CCCCN)C(=O)N[C@H](C(=O)N[C@@H](CCCCNC(=O)COCCOCCNC(=O)COCCOCCNC(=O)CC[C@H](NC(=O)CCCCCCCCCCCCCCCCC(=O)O)C(=O)O)C(=O)N[C@@H](CCC(N)=O)C(=O)N[C@@H](CCC(N)=O)C(=O)N[C@@H](CC(=O)O)C(=O)N[C@@H](Cc1ccccc1)C(=O)N[C@H](C(=O)N[C@@H](CC(N)=O)C(=O)N[C@@H](Cc1c[nH]c2ccccc12)C(=O)N[C@@H](CC(C)C)C(=O)N[C@@H](CC(C)C)C(=O)N[C@@H](CCC(=O)O)C(=O)N[C@@H](CCC(N)=O)C(=O)N[C@@H](CCCCN)C(=O)N1CCC[C@H]1C(=O)N[C@@H](CO)C(=O)N[C@@H](CO)C(=O)NCC(=O)N[C@@H](C)C(=O)N1CCC[C@H]1C(=O)N1CCC[C@H]1C(=O)N1CCC[C@H]1C(=O)N[C@@H](CO)C(=O)O)C(C)C)[C@@H](C)CC
cAMP agonism % Emax: 6% | cAMP antagonism: 15.9 nM | cAMP antagonism % inhib: 76% | cAMP antagonism pIC50: 7.8
